Assay results reported in PMC12807514.
Read-outs that look alike come from different tables or passages of the source. One block for each substance: values may come before it.

What was measured:
CCR7 (Homo sapiens) [1] = target: CCR7 (Homo sapiens) (UniProt P32248); details: cited from earlier work
CCR7 (Homo sapiens) [2] = target: CCR7 (Homo sapiens) (UniProt P32248); details: cited from earlier work; remark: listed apart in the source
[3] = target: C-C Chemokine Receptor 7 (CCR7), endogenous in CEM cells (human (endogenous in CEM)) (UniProt P32248)

CCL19, sequence (Q99731 22-98): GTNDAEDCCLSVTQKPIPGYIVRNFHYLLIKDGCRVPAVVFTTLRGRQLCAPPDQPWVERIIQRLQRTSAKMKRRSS

Substance: CCL19 (from UniProt Q99731)
Kd (CCR7 (Homo sapiens) [1]): 0.1 nM

Substance: CCL21 (from UniProt O00585)
Kd (CCR7 (Homo sapiens) [2]): 0.1 nM

CCR7 internalization (CCR7 left on the surface, flow cytometry) in CEM T cells with 200 nM CCL19, measured at 2 min intervals over 10 min [3]: 80%
Substance: human C-C Chemokine Ligand 19 (hCCL19) (from UniProt Q99731 22-98)
